Reference: IntAct's records for PubMed 21435037

B1: Inositol phosphate phosphatase SopB (Salmonella typhimurium), O30916 (parent)
chain: MQIQSFYHSASLKTQEAFKSLQKTLYNGMQILSGQGKAPAKAPDARPEIIVLREPGATWGNYLQHQKASNHSLHNLYNLQRDLLTVAATVLGKQDPVLTSMANQMELAKVKADRPATKQEEAAAKALKKNLIELIAARTQQQDGLPAKEAHRFAAVAFRDAQVKQLNNQPWQTIKNTLTHNGHHYTNTQLPAAEMKIGAKDIFPSAYEGKGVCSWDTKNIHHANNLWMSTVSVHEDGKDKTLFCGIRHGVLSPYHEKDPLLRHVGAENKAKEVLTAALFSKPELLNKALAGEAVSLKLVSVGLLTASNIFGKEGTMVEDQMRAWQSLTQPGKMIHLKIRNKDGDLQTVKIKPDVAAFNVGVNELALKLGFGLKASDSYNAEALHQLLGNDLRPEARPGGWVGEWLAQYPDNYEVVNTLARQIKDIWKNNQHHKDGGEPYKLAQRLAMLAHEIDAVPAWNCKSGKDRTGMMDSEIKREIISLHQTHMLSAPGSLPDSGGQKIFQKVLLNSGNLEIQKQNTGGAGNKVMKNLSPEVLNLSYQKRVGDENIWQSVKGISSLITS

Variants of: B1
Details: with cdc42_human CDC42, P60953
Sequence of cdc42_human CDC42, P60953 (P60953 whole entry, looked up): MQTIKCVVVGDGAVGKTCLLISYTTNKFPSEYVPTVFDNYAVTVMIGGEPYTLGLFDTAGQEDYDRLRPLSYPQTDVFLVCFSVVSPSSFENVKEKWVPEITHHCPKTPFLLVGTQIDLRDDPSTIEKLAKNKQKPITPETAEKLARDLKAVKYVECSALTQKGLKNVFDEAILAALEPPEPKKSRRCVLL

| Variant | effect of a mutation on the interaction |
| --- | --- |
| L63P | decreasing interaction |
| L73P | decreasing interaction |
| L76P | decreasing interaction |
| L84P | decreasing interaction |

Variants of: B1
Details: with cdc42_human CDC42, P60953
Remark: another data set of the same source

| Variant | effect of a mutation on the interaction |
| --- | --- |
| L52P | decreasing interaction |
| L63P;R466A | decreasing interaction |
| L73P;R466A | decreasing interaction |
| L76P;R466A | decreasing interaction |
| L84P;R466A | decreasing interaction |
